This passage reports fold increase in luminescence compared to the DMSO/background results from patent US20240024490A1, “BIFUNCTIONAL MOLECULES FOR SELECTIVE MODIFICATION OF TARGET SUBSTRATES” (The Broad Institute, Inc., priority 2021, published 2024).

This experiment concerns the target SmBiT fused to the N-terminus of BCR-ABL. The experiment can be described thus: NanoBiT split-luciferase complementation in cells, LgBiT and SmBiT at the N-terminus of BCR-ABL; complex induced by a homo-bifunctional small molecule (homo-PHICS).

On to “LgBiT fused to the N-terminus of BCR-ABL (enzyme)”, for which the fold increase in luminescence compared to the DMSO/background worked out at 6 fold.
